The values below come from US10857209B2, “Lysosomal acid lipase and PPAR gamma ligands as immune therapies for cancer treatment” (Indiana University Research and Technology Corporation, priority 2016, dated 2020).

The subject of assay [1] is B16 melanoma cells. Briefly: Mouse metastasis model, pre-treated MDSCs co-injected intravenously with B16 melanoma cells. It counts as in vivo. The conditions noted are these: two weeks. How it is done:
The tumor growth and metastasis model were described in Zhao et al., Oncogene. 2015; 34:1938-48. MDSCs and B16 melanoma cells were collected separately. A pilot study was performed to determine the best ratio between MDSCs and B16 melanoma cells. To test the tumor growth potential, 6×10^5 pre-treated MDSCs and 2×10^5 B16 melanoma cells were mixed, centrifuged and re-suspended in 100 μL PBS, and then injected subcutaneously into the flank region of 3-month old recipient lal^+/+ mice. Tumor volume (length×width^2×π/6) was monitored every week for 4 weeks. To test the metastasis potential, 2×10^6 pre-treated MDSCs and 5×10^5 B16 melanoma cells were mixed and incubated at 37° C., 5% CO2 for 30 minutes. After the incubation, cells were centrifuged, re-suspended, and injected intravenously into 3-month old lal^+/+ mice. Two weeks after the injection, the mice were sacrificed and the lungs were inflated with 4% paraformaldehyde for examination of metastasis.
The harvested lungs were fixed with 4% paraformaldehyde in PBS at 4° C. for overnight. After fixation and embedding in paraffin, tissue sections were cut to 5 μm thick. Hematoxylin and eosin (H&E) staining and immunohistochemical (IHC) staining with anti-Ki67 antibody were performed by the Histological Core Facility, Department of Pathology and Laboratory Medicine, Indiana University. Images were taken by Olympus microscopy image system (Olympus, Tokyo, Japan).

Assay [2] concerns B16 melanoma cells. The assay is described as follows: In vitro migration (wound healing) assay with pre-treated MDSCs. Format: cell-based, mouse. The conditions noted are these: co-culture with pre-treated lal−/− Ly6G+ cells; 24 hours; mitomycin C. Here is the method:
In vitro wound healing assay was performed to analyze B16 melanoma cell migration. Briefly, B16 melanoma cells were seeded at a density of 1.5×10^5 cells/well into a 24-well plate and incubated overnight to form a confluent monolayer. Scratch was created by scraping the cell monolayer in a straight line with a p200 pipet tip. After washing 3 times with DMEM, the medium was changed with DMEM containing 10% FBS and 5 μg/mL mitomycin C (Sigma-Aldrich, St. Louis, Mo., USA), and MDSCs pre-treated with 9-HODE or ethanol for 24 hours were added onto B16 melanoma cell monolayer at a density of 1×10^6 cells/well. Images were taken at 0 and 24 hours after creating the scratch. Migration was estimated by measuring the distances from one side of scratch to the other side using Image Pro-Plus software (Media Cybernetics, Rockville, Md., USA).

The test system of assay [3] is B16 melanoma cells. Briefly: B16 melanoma metastasis in CCSP-Tg/KO mice. Format: in vivo, mouse. The conditions noted are these: lung epithelial-specific expression in lal−/− mice; 5×10^5 cells i.v., two weeks. Here is the method:
For the tumor metastasis model, 5×10^5 B16 melanoma cells in 200 μL PBS were injected into the mice via tail vein. Two weeks after the injection, the mice were sacrificed and the lungs were harvested for examination of metastasis.

The test system of assay [4] is Ly6G+CD11b+ cells. Briefly: Flow cytometry of Ly6G+CD11b+ cells in CCSP-Tg/KO mice. It counts as in vivo, mouse. How it is done:
For immune cell profile analysis, single cells from the lung, bone marrow, spleen and blood of lal^+/+, lal^−/− and CCSP-Tg/KO triple mice were prepared. Cells were labeled with isotype control or surface-specific primary antibodies at 4° C. for 15 minutes, and then washed and ready for flow cytometry analysis. Anti-CD11b (M1/70) PE-Cyanine7 and anti-Ly6G (RB6-8c5) APC-eFluor® 780 were purchased from eBiosciences (San Diego, Calif., USA). For characterization of tissue-specific expression of the hLAL transgene, single cells from the lungs of lal^+/+, lal^−/− and CCSP-Tg/KO triple mice were prepared and stained. Surfactant protein C (SP-C, AT II epithelial cell marker) Ab and Flag Ab were purchased from Santa Cruz Biotechnology (Dallas, Tex., USA) and Sigma-Aldrich (St. Louis, Mo., USA), respectively. In gated SP-C^+ cells, the number of the Flag^+ cells were analyzed by flow cytometry and calculated based on M1, which is defined by isotype control. Whole spleen cells were used as a control, in which the number of the Flag^+ cells was analyzed. For flow cytometry analysis, ≥30,000 cells were acquired and scored using a LSRII machine (BD Biosciences, San Jose, Calif., USA). Data were processed using the CellQuest software program (BD Biosciences).
Background: A flow cytometer gives signals particle by particle.

The test system of assay [5] is pulmonary endothelial cells (ECs). Briefly: In vitro BALF treatment of pulmonary endothelial cells (proliferation, wound healing). Format: cell-based, mouse. Here is the method:
ECs were isolated from lal^+/+ lungs and cultured in vitro. Briefly, the mouse was anesthetized and 1 mL collagenase A (2 mg/mL, Roche, Indianapolis, Ind., USA) was infused into the lung through the trachea. The lung was removed and then incubated with 10 mL collagenase A at 37° C. for 30 minutes. After the incubation, the resulting cell suspension was filtered through a 40 μm strainer and centrifuged for 5 minutes at 1,500 rpm. After removal of the supernatant, the cell pellet was subjected to magnetic bead sorting using anti-CD31 microbeads (Miltenyi Biotec., Auburn, Calif., USA) according to the manufacturer's protocol. The resulting cells were plated onto gelatin-coated (Sigma-Aldrich) 6-well plates and maintained in DMEM supplemented with endothelial cell growth supplement, heparin, L-Glutamine (Sigma-Aldrich), FBS, and Antibiotic-Antimycotic (Gibco).
To examine the effect of BALF on EC proliferation, 5×10^4 ECs were seeded into a well of 24-well plates in 250 μL DMEM supplemented with 10% FBS, and then treated with 250 μL BALF harvested from lal^+/+, lal^−/− or CCSP-Tg/KO triple mice. Seventy-two hours later, the number of ECs was counted.
To analyze the effects of BALF on tumor cell or EC migration, in vitro wound healing assays were performed. […]

The mark [6] stands for this setting: pre-treated lal−/− Ly6G+ cells + B16 i.v.
Where [7] appears, read: doxycycline-treated CCSP-Tg/KO mice.

For 9-hydroxyoctadecadienoic acid [9-HODE], the “B16 melanoma colonization in the lung” value in assay [1] (pre-treated lal+/+ Ly6G+ cells + B16 i.v.) was “did not affect B16 melanoma colonization in the lung”. Also, the “B16 melanoma colonies in the lungs” value in assay [1] (pre-treated lal−/− Ly6G+ cells + B16 i.v. into lal+/+ mice, vs ethanol) is recorded as “less B16 melanoma colonies”. In assay [1] (setting [6]), the “Ki67 positive cells in lung sections (IHC staining)” value is given as “less Ki67 positive cells” and the “neoplastic cells in lung sections (H&E staining)” value is on record as “less neoplastic cells”. For the same molecule, the “B16 melanoma cell migration into wound area” value in assay [2] is reported as “delayed migration towards the scratch”.

B1: hLAL: human lysosomal acid lipase expressed from a doxycycline-controlled tissue-specific transgene in lal−/− mice; never administered as a protein (protein)
chain: GPKPVVFLQHGLLADSSNWVTNLANSSLGFILADAGFDVWMGNSRGNTWSRKHKTLSVSQDEFWAFSYDEMAKYDLPASINFILNKTGQEQVYYVGHSQGTTIGFIAFSQIPELAKRIKMFFALGPVASVAFCTSPMAKLGRLPDHLIKDLFGDKEFLPQSAFLKWLGTHVCTHVILKELCGNLCFLLCGFNERNLNMSRVDVYTTHSPAGTSVQNMLHWSQAVKFQKFQAFDWGSSAKNYFHYNQSYPPTYNVKDMLVPTAVWSGGHDWLADVYDVNILLTQITNLVFHESIPEWEHLDFIWGLDAPWRLYNKIINLMRKYQ
modifications: left off: small tags and cut ends
notes: human lysosomal acid lipase expressed from a doxycycline-controlled tissue-specific transgene in lal−/− mice; never administered as a protein
As to B1, in assay [3], the “B16 melanoma cell metastasis in the lung” value was “reduced B16 melanoma cell metastasis”. Further, the “percentage of Ly6G+CD11b+ cells in the lung” value in assay [4] (doxycycline-treated (hLAL on) vs untreated CCSP-Tg/KO mice) was “significantly decreased”. In assay [4] (setting [7]), the “Ly6G+CD11b+ cell accumulation in the blood” value is on record as “reduced”; the “Ly6G+CD11b+ cells in the spleen and bone marrow” value is listed as “no reversing effect”. The “EC migration (wound healing)” value in assay [5] (BALF from doxycycline-treated CCSP-Tg/KO mice, 15 hours, mitomycin C) is on record as “decreased EC migration”. The EC proliferation result in assay [5] (lal+/+ ECs with BALF from doxycycline-treated CCSP-Tg/KO mice, 72 hours) is on record as “decreased EC proliferation”.
